# In article PMC9985635:
# Target: p65 (UniProt Q04206)
# Assay: co-immunoprecipitation, immunoblot
# Conditions: reference: wild-type RB; sites S249,T252
substance,measurement,value
RB (retinoblastoma protein) (from UniProt P06400) RB S249A/T252A,binding against the reference,weaker
